The target in this experiment is p53 (endogenous wild-type p53 of human retinoblastoma cells and human fetal retinal cells) (human) (UniProt P04637). The experiment can be described thus: cell-based or functional assay.
p53 (endogenous wild-type p53 of human retinoblastoma cells and human fetal retinal cells) (human), sequence (P04637 whole entry): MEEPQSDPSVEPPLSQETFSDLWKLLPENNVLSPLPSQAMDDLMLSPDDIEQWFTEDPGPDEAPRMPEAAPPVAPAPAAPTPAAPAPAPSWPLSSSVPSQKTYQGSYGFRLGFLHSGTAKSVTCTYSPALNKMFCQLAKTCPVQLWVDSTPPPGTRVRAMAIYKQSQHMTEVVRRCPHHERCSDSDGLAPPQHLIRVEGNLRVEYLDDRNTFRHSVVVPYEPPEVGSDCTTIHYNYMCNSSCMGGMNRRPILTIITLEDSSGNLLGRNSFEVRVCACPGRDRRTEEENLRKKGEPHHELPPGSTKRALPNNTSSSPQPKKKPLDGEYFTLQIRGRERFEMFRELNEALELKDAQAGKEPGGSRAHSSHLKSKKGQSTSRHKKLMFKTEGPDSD

Consider “MDMX (ectopically expressed from the FLAG-tagged MDMX cDNA)”, for which the luciferase activity of the p53 reporter construct PG13 in retinoblastoma (Y79) cells is 19 fold.

The values are drawn from patent publication US20120115880A1.
